Assay results: patent US20100055104A1 (NEUTEC PHARMA, published 2010)
Ends that are not written are not given here.

How the values were obtained:
[1] = biological target: T1, recombinant hsp90 from Candida albicans (Candida albicans, UniProt P46598 1-707); test: Biacore SPR; Candida hsp90 amine-coupled to CM-5 chip, Mycograb injected; 1:1 Langmuir fit
T1 construct: also called Candida hsp90; Candida albicans hsp90

recombinant human hsp90α = biological target: T2, recombinant human hsp90α (human, UniProt P07900 1-732, limits assumed); test: Biacore SPR; human hsp90α amine-coupled to CM-5 chip, Mycograb injected; 1:1 Langmuir fit
T2 construct: also called human hsp90a; human hsp 90 alpha

[2] = biological target: T3, biotinylated LKVIRK peptide (SEQ ID NO: 4) (also: biotinylated, site not given here); test: Biacore SPR; biotinylated peptide captured on SA chip, Mycograb injected; 1:1 Langmuir fit
T3 construct: Captured non-covalently on a Sensor Chip SA; Any spacer between the biotin and the peptide is not described; also called immobilised peptide
T3 peptide: LKVIRK

T1 sequence (P46598 whole entry): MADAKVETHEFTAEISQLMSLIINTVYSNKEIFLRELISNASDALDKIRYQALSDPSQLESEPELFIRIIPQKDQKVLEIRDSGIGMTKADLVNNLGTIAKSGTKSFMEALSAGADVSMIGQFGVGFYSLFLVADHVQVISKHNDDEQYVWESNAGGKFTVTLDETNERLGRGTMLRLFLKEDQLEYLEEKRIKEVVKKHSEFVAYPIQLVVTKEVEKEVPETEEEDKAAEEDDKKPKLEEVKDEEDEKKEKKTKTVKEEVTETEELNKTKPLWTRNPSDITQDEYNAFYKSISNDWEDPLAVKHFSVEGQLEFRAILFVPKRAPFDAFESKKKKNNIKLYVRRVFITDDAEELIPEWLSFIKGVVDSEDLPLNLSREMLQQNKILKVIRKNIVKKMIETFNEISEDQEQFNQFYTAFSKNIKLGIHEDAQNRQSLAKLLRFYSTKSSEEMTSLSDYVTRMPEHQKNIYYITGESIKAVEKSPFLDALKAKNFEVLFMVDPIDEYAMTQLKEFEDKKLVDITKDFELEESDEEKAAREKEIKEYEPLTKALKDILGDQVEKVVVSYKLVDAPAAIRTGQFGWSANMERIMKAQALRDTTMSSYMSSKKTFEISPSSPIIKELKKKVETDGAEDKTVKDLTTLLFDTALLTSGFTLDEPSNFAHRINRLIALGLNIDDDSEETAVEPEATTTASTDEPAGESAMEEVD

B1: Mycograb® (antibody component, SEQ ID NO: 1) (antibody)
chain: HMAEVQLVESGAEVKKPGESLRISCKGSGCIISSYWISWVRQMPGKGLEWMGKIDPGDSYINYSPSFQGHVTISADKSINTAYLQWNSLKASDTAMYYCARGGRDFGDSFDYWGQGTLVTVSSGGGGSGGGGSGGGGSDVVMTQSPSFLSAFVGDRITITCRASSGISRYLAWYQQAPGKAPKLLIYAASTLQTGVPSRFSGSGSGTEFTLTINSLQPEDFATYYCQHLNSYPLTFGGGTKVDIKRAA
notes: Formulated as described in WO-A-01/76627; also called Mycogab; Mycograbg
Kd [1]: 717 nM | koff [1]: 0.000267 s⁻¹ | kon [1]: 373 M⁻¹ s⁻¹ | Kd (recombinant human hsp90α): 3270 nM | koff (recombinant human hsp90α): 0.00321 s⁻¹ | kon (recombinant human hsp90α): 981 M⁻¹ s⁻¹ | Kd [2]: 28.6 nM | koff [2]: 0.000647 s⁻¹ | kon [2]: 22600 M⁻¹ s⁻¹
